Key:
[1] = molecular target: human ErbB2 receptor on BT474 human breast tumor cells (human) (UniProt P04626); assay: cell-based or functional assay
[2] = molecular target: human ErbB2 receptor on BT474 human breast tumor cells (human) (UniProt P04626); assay: Scatchard analysis, 125I-antibody on BT474 cell monolayers, on ice

“anti-ErbB2 IgG1κ murine monoclonal antibody 4D5 (ATCC CRL 10463)” showed a % apoptosis of BT474 cell population (Hoechst 33342 cell cycle analysis, 3 days) [1] of 41.9%, a proportion of S-phase cells (BT474, 3 days) [1] of 5.4% and a Kd [2] of 6.5 nM.

Reference: patent US7371376
